Values joined by “and” are separate entries in the source; they are usually repeats but may differ in a detail not shown here. Identical values can stand only once. Like-named read-outs stand apart in the source and are kept apart here.
Tests used:
Details in all cases: remark: other sources report otherwise
[1] = biological target: T1, recombinant soluble homotrimeric HA of A/Anhui/1/05 (H5N1) (Influenza A virus A/Anhui/1/2005(H5N1)); test: HA microarray, BCC supernatant
[2] = biological target: T2, recombinant soluble homotrimeric HA of A/California/4/09 (H1N1) (Influenza A virus A/California/04/2009(H1N1)); test: HA microarray, BCC supernatant
[3] = biological target: T3, recombinant soluble homotrimeric HA of A/Egypt/3300-NAMRU3/08 (H5N1) (Influenza A virus A/Egypt/3300-NAMRU3/2008(H5N1)); test: HA microarray, BCC supernatant
[4] = biological target: T4, recombinant soluble homotrimeric HA of A/Hong Kong/2108/03 (H9N2) (Influenza A virus A/HK/2108/2003(H9N2)); test: HA microarray, BCC supernatant
[5] = biological target: T5, recombinant soluble homotrimeric HA of A/Indonesia/5/05 (H5N1) (Influenza A virus A/Indonesia/5/2005(H5N1)); test: HA microarray, BCC supernatant
[6] = biological target: T6, recombinant soluble homotrimeric HA of A/Japan/305/57 (H2N2) (Influenza A virus A/Japan/305/1957(H2N2)); test: HA microarray, BCC supernatant
[7] = biological target: T7, recombinant soluble homotrimeric HA of A/Netherlands/219/03 (H7N7) (Influenza A virus A/Netherlands/219/03(H7N7)); test: HA microarray, BCC supernatant
[8] = biological target: T8, recombinant soluble homotrimeric HA of A/Solomon Islands/3/06 (H1N1) (Influenza A virus A/Solomon Islands/3/2006(H1N1)); test: HA microarray, BCC supernatant
[9] = biological target: T9, recombinant soluble homotrimeric HA of A/Vietnam/1203/04 (H5N1) (Influenza A virus A/VietNam/1203/2004(H5N1)); test: HA microarray, BCC supernatant
[10] = biological target: recombinant soluble homotrimeric HA of A/Wisconsin/67/05 (H3N2) (Influenza A virus A/Wisconsin/67/2005(H3N2)); test: HA microarray, BCC supernatant
[11] = biological target: T10, recombinant soluble homotrimeric HA of A/duck/Yangzhou/02/05 (H8N4) (Influenza A virus A/duck/Yangzhou/02/2005(H8N4)); test: HA microarray, BCC supernatant
[12] = biological target: recombinant soluble homotrimeric HA, A/Anhui/1/05 H5N1 (Influenza A virus A/Anhui/1/2005(H5N1)); test: microarray, transfection SN IgG, trimeric HA
[13] = biological target: recombinant soluble homotrimeric HA, A/California/4/09 H1N1 (Influenza A virus A/California/04/2009(H1N1)); test: microarray, transfection SN IgG, trimeric HA
[14] = biological target: recombinant soluble homotrimeric HA, A/Hong Kong/156/97 H5N1 (Influenza A virus A/Hong Kong/156/97 (H5N1)); test: microarray, transfection SN IgG, trimeric HA
[15] = biological target: recombinant soluble homotrimeric HA, A/Japan/305/57 H2N2 (Influenza A virus A/Japan/305/1957(H2N2)); test: microarray, transfection SN IgG, trimeric HA
[16] = biological target: recombinant soluble homotrimeric HA, A/Solomon Islands/3/06 H1N1 (Influenza A virus A/Solomon Islands/3/2006(H1N1)); test: microarray, transfection SN IgG, trimeric HA
[17] = biological target: recombinant soluble homotrimeric HA, A/South Carolina/1/18 H1N1 (Influenza A virus A/South Carolina/1/18 (H1N1)); test: microarray, transfection SN IgG, trimeric HA
[18] = biological target: recombinant soluble homotrimeric HA, A/Vietnam/1203/04 H5N1 (Influenza A virus A/VietNam/1203/2004(H5N1)); test: microarray, transfection SN IgG, trimeric HA
[19] = biological target: recombinant homotrimeric HA A/Anhui/1/05 H5N1 (Influenza A virus A/Anhui/1/2005(H5N1)); test: protein microarray, purified IgG, trimeric HA
[20] = biological target: recombinant homotrimeric HA A/California/4/09 H1N1 (Influenza A virus A/California/04/2009(H1N1)); test: protein microarray, purified IgG, trimeric HA
[21] = biological target: recombinant homotrimeric HA A/Egypt/3300-NAMRU3/08 H5N1 (Influenza A virus A/Egypt/3300-NAMRU3/2008(H5N1)); test: protein microarray, purified IgG, trimeric HA
[22] = biological target: recombinant homotrimeric HA A/Hong Kong/156/97 H5N1 (Influenza A virus A/Hong Kong/156/97 (H5N1)); test: protein microarray, purified IgG, trimeric HA
[23] = biological target: recombinant homotrimeric HA A/Indonesia/5/05 H5N1 (Influenza A virus A/Indonesia/5/2005(H5N1)); test: protein microarray, purified IgG, trimeric HA
[24] = biological target: recombinant homotrimeric HA A/Japan/305/57 H2N2 (Influenza A virus A/Japan/305/1957(H2N2)); test: protein microarray, purified IgG, trimeric HA
[25] = biological target: recombinant homotrimeric HA A/Netherlands/219/03 H7N7 (Influenza A virus A/Netherlands/219/03(H7N7)); test: protein microarray, purified IgG, trimeric HA
[26] = biological target: recombinant homotrimeric HA A/Solomon Islands/3/06 H1N1 (Influenza A virus A/Solomon Islands/3/2006(H1N1)); test: protein microarray, purified IgG, trimeric HA
[27] = biological target: recombinant homotrimeric HA A/South Carolina/1/18 H1N1 (Influenza A virus A/South Carolina/1/18 (H1N1)); test: protein microarray, purified IgG, trimeric HA
[28] = biological target: recombinant homotrimeric HA A/Vietnam/1203/04 H5N1 (Influenza A virus A/VietNam/1203/2004(H5N1)); test: protein microarray, purified IgG, trimeric HA
[29] = biological target: hemagglutinin (HA) of influenza A/Japan/305/57 (H2N2) on whole virions (Influenza A virus A/Japan/305/1957(H2N2)), P03451; test: ELISA; BCC supernatant on coated inactivated whole virions
[30] = biological target: T1, recombinant soluble homotrimeric HA of …
[31] = biological target: T2, recombinant soluble homotrimeric HA of …
[32] = biological target: T3, recombinant soluble homotrimeric HA of …
[33] = biological target: recombinant soluble homotrimeric HA of A/Hong Kong/1073/99 (H9N2) (Influenza A virus A/Hong Kong/1073/99 (H9N2))
[34] = biological target: recombinant soluble homotrimeric HA of A/Hong Kong/156/97 (H5N1) (Influenza A virus A/Hong Kong/156/97 (H5N1))
[35] = biological target: T4, recombinant soluble homotrimeric HA of …
[36] = biological target: T5, recombinant soluble homotrimeric HA of …
[37] = biological target: T6, recombinant soluble homotrimeric HA of …
[38] = biological target: T7, recombinant soluble homotrimeric HA of …
[39] = biological target: T8, recombinant soluble homotrimeric HA of …
[40] = biological target: recombinant soluble homotrimeric HA of A/South Carolina/1/18 (H1N1) (Influenza A virus A/South Carolina/1/18 (H1N1))
[41] = biological target: T9, recombinant soluble homotrimeric HA of …
[42] = biological target: recombinant soluble homotrimeric HA of A/chicken/Vietnam/NCVD-016/08 (H5N1) (Influenza A virus A/chicken/Vietnam/NCVD-016/2008(H5N1))
[43] = biological target: T10, recombinant soluble homotrimeric HA of …
[44] = biological target: recombinant soluble homotrimeric HA of A/northern shoveler/California/HKWF115/07 (H6) (Influenza A virus A/northern shoveler/California/HKWF115/2007(H6N1))
[45] = biological target: recombinant soluble homotrimeric HA of A/swine/Ontario/01911-2/99 (H4N6) (Influenza A virus A/Swine/Ontario/01911-2/99 (H4N6))
[46] = biological target: recombinant soluble homotrimeric HA of H1N1 A/California/04/09 (Influenza A virus A/California/04/2009(H1N1)); test: ProteOn biosensor, HA-CA captured on anti-V5 surface, Fab in solution

B1: TCN-551 (5243_D01) (antibody, V domains shown)
VH: EVQLVQSGSEVKKPGESLKISCKGSGYSFSNYWIGWVRHMPGKGLEWMGIIYPGDSDTRYSPSFQGQVTMSADKSSSTVYLQWSSLKASDTAIYYCARRGGHSFGYGSGGDTHSEFDSWGQGTLVTVSS
VL: QSVLTQSPSVSAAPGQKVTISCSGSDSNIGDYFVCWYQHLPGKPPQLLIYENNKRPSGIPDRFSGSKSGTSATLGITGIQTGDEADYYCATWDGSLSAWVFGGGTKLTVL
Trimeric HA Binding: RLU [1]: 4190 RLU | Trimeric HA Binding: RLU [2]: 53400 RLU | Trimeric HA Binding: RLU [3]: 47200 RLU | Trimeric HA Binding: RLU [4]: 224 RLU | Trimeric HA Binding: RLU [5]: 53500 RLU | Trimeric HA Binding: RLU [6]: 22600 RLU | Trimeric HA Binding: RLU [7]: 786 RLU | Trimeric HA Binding: RLU [8]: 53800 RLU | Trimeric HA Binding: RLU [9]: 4150 RLU | Trimeric HA Binding: RLU [10]: 6840 RLU | Trimeric HA Binding: RLU [11]: 9820 RLU | Trimeric HA Binding: RLU [12]: 2640 RLU | Trimeric HA Binding: RLU [13]: 46100 RLU | Trimeric HA Binding: RLU [14]: 792 RLU | Trimeric HA Binding: RLU [15]: 25200 RLU | Trimeric HA Binding: RLU [16]: 43500 RLU | Trimeric HA Binding: RLU [17]: 4340 RLU | Trimeric HA Binding: RLU [18]: 41900 RLU | Trimeric HA Binding: RLU [19]: 6640 RLU | Trimeric HA Binding: RLU [20]: 19400 RLU | Trimeric HA Binding: RLU [21]: 907 RLU | Trimeric HA Binding: RLU [22]: 824 RLU | Trimeric HA Binding: RLU [23]: 296 RLU | Trimeric HA Binding: RLU [24]: 1600 RLU | Trimeric HA Binding: RLU [25]: 1670 RLU | Trimeric HA Binding: RLU [26]: 25000 RLU | Trimeric HA Binding: RLU [27]: 10300 RLU | Trimeric HA Binding: RLU [28]: 2950 RLU | ELISA virus binding (OD450) [29]: 0.19 OD450

B2: TCN-564 (5256_A17b) (antibody, V domains shown)
VH: QVQLVQSGADVKKPGSSVTVSCKASGGSFSNYGINWVRQAPGQGLEWMGGIIPLINAPNYAPKFQGRVTITADMFSNIVSLQLTSLRTDDTAVYYCARRKMTTAIDYWGQGTLVTVSS
VL: QPVLSQPPSASASLGASVTLTCTLSSGFDNYQVAWYQQRPGKGPRFVMRVGNGGNVASKGDGIPDRFSVSGSGLNRYLTIKNIQEDDESDYYCGADHGSGNNFVSPYVFGGGTKLTVL
Trimeric HA Binding: RLU [30]: 4260 RLU | Trimeric HA Binding: RLU [31]: 27500 RLU | Trimeric HA Binding: RLU [32]: 19900 RLU | Trimeric HA Binding: RLU [33]: 9470 RLU | Trimeric HA Binding: RLU [34]: 18100 RLU | Trimeric HA Binding: RLU [35]: 272 RLU | Trimeric HA Binding: RLU [36]: 26300 RLU | Trimeric HA Binding: RLU [37]: 20200 RLU | Trimeric HA Binding: RLU [38]: 1410 RLU | Trimeric HA Binding: RLU [39]: 8570 RLU | Trimeric HA Binding: RLU [40]: 15100 RLU | Trimeric HA Binding: RLU [41]: 25400 RLU | Trimeric HA Binding: RLU [42]: 5860 RLU | Trimeric HA Binding: RLU [43]: 369 RLU | Trimeric HA Binding: RLU [44]: 16000 RLU | Trimeric HA Binding: RLU [45]: 251 RLU

B3: Fab fragment of TCN-522 (Fab, V domains shown)
VH: QVQLQQWGAGLLKPSETLSLTCTVSGGSLTDYSWNWIRQPPGKGLEWIGDTLHNGYTNYNPSLRGRVSISIDTSKNQVSLRLTSVTAADTALYYCARGSGGYGGFDYFGKLRTWDFWGQGTLVTVSS
VL: DIQLTQSPSSLSASVGDRVTITCRASQGIRNDLGWYQQKPGNAPKRLIFGASSLQSGVPSRFSGSGSGTEFTLTISSLQPEDFATYYCLQHNSYPYTFGQGTKLEIK
fold slower on-rate (ka) than the other Fabs [46]: 5 fold and 8 fold

— patent publication US20150086555A1
